Test results: PMC9482650, “Quantitative fragmentomics allow affinity mapping of interactomes” (Nature Communications, 2022)
Changes are numbered by the printed parent chain.

T1: LIN7A, O14910
T1 sequence (O14910 103-200, limits assumed, looked up): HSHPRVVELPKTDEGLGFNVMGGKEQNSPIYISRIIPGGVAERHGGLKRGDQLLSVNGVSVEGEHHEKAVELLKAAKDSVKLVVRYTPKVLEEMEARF

T2: TX1BP3, O14907
T2 sequence (O14907 10-122, limits assumed, looked up): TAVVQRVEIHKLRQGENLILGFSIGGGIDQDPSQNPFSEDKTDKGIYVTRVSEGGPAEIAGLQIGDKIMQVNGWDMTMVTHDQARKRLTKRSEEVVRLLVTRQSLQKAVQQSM

T3: SNTG2, Q9NY99
T3 sequence (Q9NY99 68-166, limits assumed, looked up): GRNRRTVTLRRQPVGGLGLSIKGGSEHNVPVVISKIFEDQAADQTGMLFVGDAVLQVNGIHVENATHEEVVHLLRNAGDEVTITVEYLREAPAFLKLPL

T4: RAPGEF6, Q8TEU7
T4 sequence (Q8TEU7 525-625, limits assumed, looked up): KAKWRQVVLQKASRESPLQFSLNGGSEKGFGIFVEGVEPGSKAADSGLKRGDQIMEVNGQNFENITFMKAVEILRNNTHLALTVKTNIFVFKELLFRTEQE

T5: APBA2_2, Q99767
T5 sequence (Q99767 654-744, limits assumed, looked up): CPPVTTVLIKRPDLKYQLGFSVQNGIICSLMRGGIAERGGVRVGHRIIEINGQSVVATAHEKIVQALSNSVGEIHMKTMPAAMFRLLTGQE

T6: APBA2_1, Q99767
T6 sequence (Q99767 563-664, limits assumed, looked up): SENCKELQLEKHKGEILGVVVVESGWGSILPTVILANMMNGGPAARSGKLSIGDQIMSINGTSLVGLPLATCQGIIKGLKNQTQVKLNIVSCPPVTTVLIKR

T7: DLG3_2, Q92796
T7 sequence (Q92796 221-321, limits assumed, looked up): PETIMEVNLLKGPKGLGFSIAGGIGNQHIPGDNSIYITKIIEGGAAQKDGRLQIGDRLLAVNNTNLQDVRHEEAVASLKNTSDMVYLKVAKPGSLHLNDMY

T8: DLG3_1, Q92796
T8 sequence (Q92796 125-227, limits assumed, looked up): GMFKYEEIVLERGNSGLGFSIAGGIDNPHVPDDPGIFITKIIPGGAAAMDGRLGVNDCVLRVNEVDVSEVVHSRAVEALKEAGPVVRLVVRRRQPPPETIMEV

T9: APBA1_1, Q02410
T9 sequence (Q02410 651-752, limits assumed, looked up): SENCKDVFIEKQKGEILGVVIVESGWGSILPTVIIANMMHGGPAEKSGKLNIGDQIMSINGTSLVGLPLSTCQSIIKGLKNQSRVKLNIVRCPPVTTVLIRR

T10: LIN7C, Q9NUP9
T10 sequence (Q9NUP9 88-185, limits assumed, looked up): T1 sequence (O14910 103-200, limits assumed, looked up) with D13E, V20I, V40I, E42D, K77Q, D78G, S79K, A96S

T11: PCLO, Q9Y6V0
T11 sequence (Q9Y6V0 4491-4600, limits assumed, looked up): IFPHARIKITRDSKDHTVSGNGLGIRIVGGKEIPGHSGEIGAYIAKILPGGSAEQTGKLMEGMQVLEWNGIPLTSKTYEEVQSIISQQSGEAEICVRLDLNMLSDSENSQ

T12: PARD3B_1, Q8TEW8
T12 sequence (Q8TEW8 196-299, limits assumed, looked up): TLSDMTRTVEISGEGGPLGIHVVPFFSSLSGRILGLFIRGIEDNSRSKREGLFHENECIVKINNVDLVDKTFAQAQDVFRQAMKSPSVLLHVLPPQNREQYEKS

B1: RCN2, Q14257 (peptide)
chain: HDDYFYHDEL
B2: CD46, P15529 (peptide)
chain: THREVKFTSL
B3: NRXN3, Q9HDB5 (peptide)
chain: QKNKDREYYV

These binders were tested against Inadl_10, Q8NI35 (assay: holdup assay). Settings: plain residues with an end cap or a label only (N-terminal biotin on a linker: ado-ado).
Chain of Inadl_10, Q8NI35 (Q8NI35 1673-1763): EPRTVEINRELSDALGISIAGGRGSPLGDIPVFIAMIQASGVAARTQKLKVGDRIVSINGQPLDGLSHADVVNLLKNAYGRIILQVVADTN
Design: key: below the threshold = too weak to quantify, mostly under pKd 3.1 to 4
For B1, the pKd was “below the threshold”. In the case of B2, the pKd is reported as 3.49. B3 was tested, and the pKd was “below the threshold”.

These binders were tested against LNX1_1, Q8TBB1 (assay: holdup assay). Settings: plain residues with an end cap or a label only (N-terminal biotin on a linker: ado-ado).
Chain of LNX1_1, Q8TBB1 (Q8TBB1 261-371): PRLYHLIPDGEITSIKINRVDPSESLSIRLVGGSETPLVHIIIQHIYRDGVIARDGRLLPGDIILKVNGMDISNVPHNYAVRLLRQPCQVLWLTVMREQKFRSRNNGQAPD
Design: key: below the threshold = too weak to quantify, mostly under pKd 3.1 to 4
With B1 the pKd was “below the threshold”. Work on B2 yielded a pKd of 3.5. In the case of B3, the pKd is reported as 3.65.

Each binder was assayed against DLG1_3, Q12959 (assay: holdup assay). Settings: plain residues with an end cap or a label only (N-terminal biotin on a linker: ado-ado).
Chain of DLG1_3, Q12959 (Q12959 457-571): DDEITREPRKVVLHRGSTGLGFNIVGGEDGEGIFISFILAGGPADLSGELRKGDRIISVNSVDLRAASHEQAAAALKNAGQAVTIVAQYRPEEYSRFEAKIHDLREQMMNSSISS
Design: key: below the threshold = too weak to quantify, mostly under pKd 3.1 to 4
With B1 the pKd was “below the threshold”. For B2, the pKd was 3.75. B3 was tested, and the pKd was “below the threshold”.

The binders below were run against T1, LIN7A, O14910 (assay: holdup assay). Settings: plain residues with an end cap or a label only (N-terminal biotin on a linker: ado-ado).
Design: key: below the threshold = too weak to quantify, mostly under pKd 3.1 to 4
B1 was tested, and the pKd was “below the threshold”. For B2, the pKd was “below the threshold”. With B3 the pKd was “below the threshold”.

The binders below were run against T2, TX1BP3, O14907 (assay: holdup assay). Settings: plain residues with an end cap or a label only (N-terminal biotin on a linker: ado-ado).
Design: key: below the threshold = too weak to quantify, mostly under pKd 3.1 to 4
In the case of B1, the pKd is reported as 3.9. Work on B2 yielded a pKd of 4.37. In the case of B3, the pKd is reported as “below the threshold”.

What follows are binders tested against GRIP2_7, Q9C0E4 (assay: holdup assay). Settings: plain residues with an end cap or a label only (N-terminal biotin on a linker: ado-ado).
Chain of GRIP2_7, Q9C0E4 (Q9C0E4 934-1023): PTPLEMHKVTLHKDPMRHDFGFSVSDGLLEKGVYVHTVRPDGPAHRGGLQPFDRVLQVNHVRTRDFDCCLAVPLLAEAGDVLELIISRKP
Design: key: below the threshold = too weak to quantify, mostly under pKd 3.1 to 4
With B1 the pKd was “below the threshold”. With B2 the pKd was “below the threshold”. In the case of B3, the pKd is reported as 4.89.

What follows are binders tested against T3, SNTG2, Q9NY99 (assay: holdup assay). Settings: plain residues with an end cap or a label only (N-terminal biotin on a linker: ado-ado).
Design: key: below the threshold = too weak to quantify, mostly under pKd 3.1 to 4
With B1 the pKd was “below the threshold”. With B2 the pKd was 4.05. B3 was tested, and the pKd was 3.5.

Each binder was assayed against MAGI2_6, Q86UL8 (assay: holdup assay). Settings: plain residues with an end cap or a label only (N-terminal biotin on a linker: ado-ado).
Chain of MAGI2_6, Q86UL8 (Q86UL8 1141-1229): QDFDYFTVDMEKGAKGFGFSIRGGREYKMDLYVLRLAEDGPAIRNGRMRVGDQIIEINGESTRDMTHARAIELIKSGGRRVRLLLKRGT
Design: key: below the threshold = too weak to quantify, mostly under pKd 3.1 to 4
Work on B1 yielded a pKd of 3.9. B2 showed a pKd of 4.59. In the case of B3, the pKd is reported as “below the threshold”.

The binders below were run against MAGI3_2, Q5TCQ9 (assay: holdup assay). Settings: plain residues with an end cap or a label only (N-terminal biotin on a linker: ado-ado).
Chain of MAGI3_2, Q5TCQ9 (Q5TCQ9 398-503): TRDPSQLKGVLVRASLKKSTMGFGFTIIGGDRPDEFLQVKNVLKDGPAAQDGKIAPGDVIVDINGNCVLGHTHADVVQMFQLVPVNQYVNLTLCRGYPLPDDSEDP
Design: key: below the threshold = too weak to quantify, mostly under pKd 3.1 to 4
For B1, the pKd was “below the threshold”. In the case of B2, the pKd is reported as “below the threshold”. In the case of B3, the pKd is reported as 4.75.

These binders were tested against GRASP, Q7Z6J2 (assay: holdup assay). Settings: plain residues with an end cap or a label only (N-terminal biotin on a linker: ado-ado).
Chain of GRASP, Q7Z6J2 (Q7Z6J2 96-193): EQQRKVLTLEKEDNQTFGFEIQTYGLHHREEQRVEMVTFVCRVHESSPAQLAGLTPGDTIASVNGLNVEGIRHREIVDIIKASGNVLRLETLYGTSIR
Design: key: below the threshold = too weak to quantify, mostly under pKd 3.1 to 4
B1 showed a pKd of 5.01. B2 gave a pKd of 4.77. For B3, the pKd was “below the threshold”.

The binders below were run against T4, RAPGEF6, Q8TEU7 (assay: holdup assay). Settings: plain residues with an end cap or a label only (N-terminal biotin on a linker: ado-ado).
Design: key: below the threshold = too weak to quantify, mostly under pKd 3.1 to 4
In the case of B1, the pKd is reported as “below the threshold”. B2 was tested, and the pKd was “below the threshold”. In the case of B3, the pKd is reported as “below the threshold”.

Each binder was assayed against T5, APBA2_2, Q99767 (assay: holdup assay). Settings: plain residues with an end cap or a label only (N-terminal biotin on a linker: ado-ado).
Design: key: below the threshold = too weak to quantify, mostly under pKd 3.1 to 4
B1 was tested, and the pKd was “below the threshold”. With B2 the pKd was “below the threshold”. For B3, the pKd was “below the threshold”.

These binders were tested against T6, APBA2_1, Q99767 (assay: holdup assay). Settings: plain residues with an end cap or a label only (N-terminal biotin on a linker: ado-ado).
Design: key: below the threshold = too weak to quantify, mostly under pKd 3.1 to 4
B1 was tested, and the pKd was “below the threshold”. With B2 the pKd was “below the threshold”. With B3 the pKd was “below the threshold”.

The binders below were run against T7, DLG3_2, Q92796 (assay: holdup assay). Settings: plain residues with an end cap or a label only (N-terminal biotin on a linker: ado-ado).
Design: key: below the threshold = too weak to quantify, mostly under pKd 3.1 to 4
For B1, the pKd was “below the threshold”. In the case of B2, the pKd is reported as 4.23. Work on B3 yielded a pKd of 3.65.

These binders were tested against T8, DLG3_1, Q92796 (assay: holdup assay). Settings: plain residues with an end cap or a label only (N-terminal biotin on a linker: ado-ado).
Design: key: below the threshold = too weak to quantify, mostly under pKd 3.1 to 4
B1 was tested, and the pKd was “below the threshold”. In the case of B2, the pKd is reported as “below the threshold”. B3 was tested, and the pKd was “below the threshold”.

These binders were tested against ARHGEF12, Q9NZN5-2 (assay: holdup assay). Settings: plain residues with an end cap or a label only (N-terminal biotin on a linker: ado-ado).
Chain of ARHGEF12, Q9NZN5-2 (Q9NZN5 other isoform, or with tags, fused parts or gaps): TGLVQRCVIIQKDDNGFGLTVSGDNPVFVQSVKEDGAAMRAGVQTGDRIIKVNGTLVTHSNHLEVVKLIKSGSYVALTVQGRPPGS
Design: key: below the threshold = too weak to quantify, mostly under pKd 3.1 to 4
With B1 the pKd was “below the threshold”. B2 showed a pKd of 5.37. B3 gave a pKd of 3.65.

The binders below were run against LNX1_2, Q8TBB1 (assay: holdup assay). Settings: plain residues with an end cap or a label only (N-terminal biotin on a linker: ado-ado).
Chain of LNX1_2, Q8TBB1 (Q8TBB1 371-470): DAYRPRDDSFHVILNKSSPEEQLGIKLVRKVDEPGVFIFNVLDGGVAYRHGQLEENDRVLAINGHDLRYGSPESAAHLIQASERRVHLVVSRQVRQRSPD
Design: key: below the threshold = too weak to quantify, mostly under pKd 3.1 to 4
With B1 the pKd was “below the threshold”. B2 was tested, and the pKd was “below the threshold”. With B3 the pKd was 4.08.

What follows are binders tested against FRMPD3, Q5JV73 (assay: holdup assay). Settings: plain residues with an end cap or a label only (N-terminal biotin on a linker: ado-ado).
Chain of FRMPD3, Q5JV73 (Q5JV73 12-100): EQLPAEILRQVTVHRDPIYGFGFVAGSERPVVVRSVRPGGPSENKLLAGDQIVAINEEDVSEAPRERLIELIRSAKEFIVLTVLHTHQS
Design: key: below the threshold = too weak to quantify, mostly under pKd 3.1 to 4
For B1, the pKd was “below the threshold”. For B2, the pKd was “below the threshold”. With B3 the pKd was 4.03.

What follows are binders tested against T9, APBA1_1, Q02410 (assay: holdup assay). Settings: plain residues with an end cap or a label only (N-terminal biotin on a linker: ado-ado).
Design: key: below the threshold = too weak to quantify, mostly under pKd 3.1 to 4
In the case of B1, the pKd is reported as “below the threshold”. B2 was tested, and the pKd was “below the threshold”. In the case of B3, the pKd is reported as “below the threshold”.

What follows are binders tested against T10, LIN7C, Q9NUP9 (assay: holdup assay). Settings: plain residues with an end cap or a label only (N-terminal biotin on a linker: ado-ado).
Design: key: below the threshold = too weak to quantify, mostly under pKd 3.1 to 4
With B1 the pKd was “below the threshold”. For B2, the pKd was “below the threshold”. For B3, the pKd was 3.59.

Each binder was assayed against HTRA2, O43464 (assay: holdup assay). Settings: plain residues with an end cap or a label only (N-terminal biotin on a linker: ado-ado).
Chain of HTRA2, O43464 (O43464 355-458): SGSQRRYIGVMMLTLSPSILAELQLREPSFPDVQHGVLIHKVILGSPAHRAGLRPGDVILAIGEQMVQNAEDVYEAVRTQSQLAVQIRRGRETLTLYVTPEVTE
Design: key: below the threshold = too weak to quantify, mostly under pKd 3.1 to 4
With B1 the pKd was “below the threshold”. With B2 the pKd was “below the threshold”. B3 was tested, and the pKd was 4.02.

The binders below were run against T11, PCLO, Q9Y6V0 (assay: holdup assay). Settings: plain residues with an end cap or a label only (N-terminal biotin on a linker: ado-ado).
Design: key: below the threshold = too weak to quantify, mostly under pKd 3.1 to 4
In the case of B1, the pKd is reported as “below the threshold”. For B2, the pKd was “below the threshold”. B3 was tested, and the pKd was “below the threshold”.

The binders below were run against Inadl_9, Q8NI35 (assay: holdup assay). Settings: plain residues with an end cap or a label only (N-terminal biotin on a linker: ado-ado).
Chain of Inadl_9, Q8NI35 (Q8NI35 1530-1615): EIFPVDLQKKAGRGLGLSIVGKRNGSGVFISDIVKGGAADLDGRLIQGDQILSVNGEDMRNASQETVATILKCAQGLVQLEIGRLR
Design: key: below the threshold = too weak to quantify, mostly under pKd 3.1 to 4
For B1, the pKd was “below the threshold”. With B2 the pKd was “below the threshold”. Work on B3 yielded a pKd of 4.56.

What follows are binders tested against T12, PARD3B_1, Q8TEW8 (assay: holdup assay). Settings: plain residues with an end cap or a label only (N-terminal biotin on a linker: ado-ado).
Design: key: below the threshold = too weak to quantify, mostly under pKd 3.1 to 4
Binder B1 has a pKd of 3.7. In the case of B2, the pKd is reported as 4.24. For B3, the pKd was 4.17.

The binders below were run against LIMK2, P53671 (assay: holdup assay). Settings: plain residues with an end cap or a label only (N-terminal biotin on a linker: ado-ado).
Chain of LIMK2, P53671 (P53671 143-248): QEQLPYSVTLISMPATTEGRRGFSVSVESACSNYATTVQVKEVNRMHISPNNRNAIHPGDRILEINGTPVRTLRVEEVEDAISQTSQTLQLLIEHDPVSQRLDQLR
Design: key: below the threshold = too weak to quantify, mostly under pKd 3.1 to 4
For B1, the pKd was “below the threshold”. B2 was tested, and the pKd was “below the threshold”. With B3 the pKd was “below the threshold”.
